For one substance, Kd results are on record in patent EP3464323B1.

The term Kd denotes the free concentration of one partner at which half of the binding sites on the other are occupied at equilibrium, for simple one-to-one binding.

The target of the test is CY5 fluorescently labeled CAS9 protein (S. pyogenes) (UniProt Q99ZW2). Briefly: fluorescence titration; 5 nM CY5-CAS9 titrated with peptide, quadratic fit.

Substance CADY (peptide) gave a Kd of more than 100 nM.
